Experimental data: publication PMC8931434

B1: CerS2-HA [not stated] / FATP2-Flag [human] (parent)
chain 1: MLQTLYDYFWWERLWLPVNLTWADLEDRDGRVYAKASDLYITLPLALLFLIVRYFFELYVATPLAALLNIKEKTRLRAPPNATLEHFYLTSGKQPKQVEVELLSRQSGLSGRQVERWFRRRRNQDRPSLLKKFREASWRFTFYLIAFIAGMAVIVDKPWFYDMKKVWEGYPIQSTIPSQYWYYMIELSFYWSLLFSIASDVKRKDFKEQIIHHVATIILISFSWFANYIRAGTLIMALHDSSDYLLESAKMFNYAGWKNTCNNIFIVFAIVFIITRLVILPFWILHCTLVYPLELYPAFFGYYFFNSMMGVLQLLHIFWAYLILRMAHKFITGKLVEDERSDREETESSEGEEAAAGGGAKSRPLANGHPILNNNHRKND
chain 2: not shown

Variants of: B1
Assay: co-immunoprecipitation (anti-HA IP, anti-Flag western blot, quantified)
Conditions: with FATP2-Flag [human]; CerS2-/- Hek293T cells, 48 h after transfection; three independent experiments; read off a plot
In the case of chain 1 H212A H213A, the response is reported as 1.4.
Variant chain 1 S341A T346A S348A S349A has a response of 6.2.
